Data taken from paper doi:10.1101/2022.03.26.485915 (bioRxiv, 2022).

Target: the molecule itself
Test: in-vitro amyloid aggregation

B1: Envelope domain III (EDIII) protein of ZIKV (domain or fragment, Zika virus)
chain: MGVSYSLCTAAFTFTKIPAETLHGTVTVEVQYAGTDGPCKVPAQMAVDMQTLTPVGRLITANPVITESTENSKMMLELDPPFGDSYIVIGVGEKKITHHWHRSGSTIGKGQFYLNELE
B1: binds.
